For 120 sequences, switch fluorescence ratio results are on record in the supplement of paper PMC10126150.

± gives the standard deviation of the averaged measurements.
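Also: ATP exposure 15 min at 22 °C before imaging.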

The series relates to ATP. As to the kind of experiment: switch fluorescence ratio, 500 uM ATP over buffer (Cy3 cluster intensity, sum of 5 cycles each) (fold (ratio)); higher = stronger signal-on switching upon ATP binding; sequences stand for … in TCGTCGGCAGCGTCAGATGTGTATAAGAGACAGTTTTTTTTTTTTTTTTTTTTTTTTT…TC. The note with it: aptamer strand: ATP DNA aptamer (quencher-CACCTGGGGGAGTATTGCGGAGGAAGG + anchor), 100 nM annealed; ATP concentration: 500 uM. In a few lines: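 The fluorescence ratio divides summed target-cycle Cy3 intensity by summed buffer-cycle Cy3 intensity for each cluster and is averaged per switch-domain sequence. Cy3-labelled switching-strand clusters on a modified Illumina MiSeq flow-cell were annealed to 100 nM quencher-labelled ATP aptamer, then imaged in selection buffer and again after 15 min with 500 uM ATP at 22 °C. Five such cycles were run, with NaOH stripping and re-annealing between them, and clusters outside 100-1000 RFU were excluded.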
With ACTATCTTTG, the switch fluorescence ratio was found to be 0.9924 ± 0.0098.

As for GGCGGGTGAG, the switch fluorescence ratio was 1.03 ± 0.025.

Turning to CCGGCGGTTG, the switch fluorescence ratio came out at 1 ± 0.012.

Turning to GGGTGGATGG, the switch fluorescence ratio came out at 0.985 ± 0.024.

On to TAGCTTTCGA, for which the switch fluorescence ratio amounted to 1.06 ± 0.031.

For the sequence AGCGGGTCGG, the switch fluorescence ratio stood at 1 ± 0.021.

Regarding ATACTACGGA, the switch fluorescence ratio was 1.03 ± 0.062.

For TGGTTACTTC, the switch fluorescence ratio is 1.04 ± 0.028.

In the case of TCCAAGGGGG, the switch fluorescence ratio is 1.024 ± 0.0066.

Turning to CGTATCTATC, the switch fluorescence ratio came to 1.007 ± 0.0065.

On to TAAAGGGAAA, for which the switch fluorescence ratio was determined as 1.26 ± 0.37.

As for TTATACGTAG, the switch fluorescence ratio stood at 1.03 ± 0.019.

In the case of TTGCCAAGGT, the switch fluorescence ratio worked out at 1 ± 0.013.

Consider CAAAGGGGGA, for which the switch fluorescence ratio worked out at 1 ± 0.033.

Regarding GAGTAGAGTG, the switch fluorescence ratio came out at 0.957 ± 0.026.

For the sequence TTTTGAATGG, the switch fluorescence ratio was determined as 1.02 ± 0.04.

As to AAGGGAATAA, the switch fluorescence ratio was found to be 1.11 ± 0.11.

AATTATATCA: the switch fluorescence ratio was found to be 1.01 ± 0.01.

As to TTGGGGGACT, the switch fluorescence ratio came to 1.01 ± 0.042.

Take TGGGTGTGCT: the switch fluorescence ratio stood at 1.01 ± 0.03.

Turning to TAACGATGGG, the switch fluorescence ratio worked out at 1.014 ± 0.01.

In the case of GAGGGGGTTG, the switch fluorescence ratio stood at 1.01 ± 0.048.

Take TAGGCTTTAG: the switch fluorescence ratio amounted to 1.01 ± 0.012.

For TTCGTTCGGT, the switch fluorescence ratio amounted to 1.06 ± 0.07.

On to TTCTTTATTT, for which the switch fluorescence ratio was found to be 0.993 ± 0.027.

For TTTGTATGG, the switch fluorescence ratio is 0.9819 ± 0.0042.

Turning to TTTGTCGCGG, the switch fluorescence ratio amounted to 1.02 ± 0.025.

GGCACGTGGG: the switch fluorescence ratio is 0.999 ± 0.017.

In the case of GGATTGTAAG, the switch fluorescence ratio was 0.991 ± 0.032.

On to AATATGTTTT, for which the switch fluorescence ratio stood at 1.01 ± 0.026.

TATCAGTTGT: the switch fluorescence ratio is 1.03 ± 0.013.

Regarding AACGTACAGG, the switch fluorescence ratio worked out at 1.65 ± 0.15.

As for GATTGGGGCA, the switch fluorescence ratio was 1.02 ± 0.046.

For the sequence GCTACAGCTT, the switch fluorescence ratio was 1.02 ± 0.015.

For ACAGGGTTGG, the switch fluorescence ratio was found to be 1.02 ± 0.03.

AAATCTCGT: the switch fluorescence ratio worked out at 0.995 ± 0.058.

On to AGTGATATGA, for which the switch fluorescence ratio stood at 0.9882 ± 0.0021.

Regarding TGAGCGAAGG, the switch fluorescence ratio was determined as 0.9807 ± 0.0057.

On to CGGTGGGTTA, for which the switch fluorescence ratio turned out to be 0.985 ± 0.025.

TTCTGGGTGG: the switch fluorescence ratio was 0.987 ± 0.04.

With TGCTAGGGGG, the switch fluorescence ratio amounted to 0.989 ± 0.02.

As for GGGAGTGGGT, the switch fluorescence ratio amounted to 0.99 ± 0.024.

On to CGGCAGCTGA, for which the switch fluorescence ratio was found to be 1 ± 0.011.

For TTCAGTGGAG, the switch fluorescence ratio was 1.009 ± 0.0087.

Take TTTGTTAAG: the switch fluorescence ratio stood at 1.02 ± 0.018.

As for GTTGGTTAAT, the switch fluorescence ratio was 0.966 ± 0.054.

Consider TGGTAAAGGT, for which the switch fluorescence ratio amounted to 0.985 ± 0.014.

As for TTAAAGGGTG, the switch fluorescence ratio was determined as 1.08 ± 0.048.

For the sequence AAGGGGCTCT, the switch fluorescence ratio came to 0.993 ± 0.033.

Turning to GCCAGTATGT, the switch fluorescence ratio was 1.08 ± 0.086.

Regarding GCGAACTTGG, the switch fluorescence ratio came out at 0.977 ± 0.016.

As to CCCGGGGTAC, the switch fluorescence ratio came out at 2.969 ± 0.027.

With GGGGGGGAT, the switch fluorescence ratio came out at 1.02 ± 0.025.

For the sequence GGTTCTTATA, the switch fluorescence ratio came to 1.046 ± 0.008.

On to GCCAGGGCTG, for which the switch fluorescence ratio turned out to be 1 ± 0.024.

As to GGGGCTAATG, the switch fluorescence ratio worked out at 1.01 ± 0.023.

Turning to ATGGAATTGT, the switch fluorescence ratio came out at 0.986 ± 0.022.

Take GGGGGCACG: the switch fluorescence ratio was 1.006 ± 0.0098.

With TGGGACACTG, the switch fluorescence ratio came to 0.972 ± 0.035.

With GAGGTAGATA, the switch fluorescence ratio worked out at 1.03 ± 0.046.

TGTAGTATTT: the switch fluorescence ratio amounted to 1 ± 0.013.

For the sequence TTCGTATGGG, the switch fluorescence ratio was determined as 1.09 ± 0.12.

Consider GGGGAGTACT, for which the switch fluorescence ratio was determined as 1.34 ± 0.44.

Consider AAATGCAGGT, for which the switch fluorescence ratio was 0.9908 ± 0.0061.

For CGAGGGGATA, the switch fluorescence ratio was 1.04 ± 0.051.

As for CGAGGGGCTG, the switch fluorescence ratio turned out to be 1.03 ± 0.013.

As for CTCGATAGTA, the switch fluorescence ratio was 0.9741 ± 0.003.

Consider ACGAAGGGCG, for which the switch fluorescence ratio came out at 1.019 ± 0.01.

TTCCAATGAT: the switch fluorescence ratio was 1.01 ± 0.044.

For the sequence TAACATCTTT, the switch fluorescence ratio was found to be 1.03 ± 0.013.

As for CGTCACAGTG, the switch fluorescence ratio is 1.04 ± 0.019.

As for AATTTTAAAT, the switch fluorescence ratio came to 1.09 ± 0.21.

Consider ATGGGCGAGC, for which the switch fluorescence ratio turned out to be 0.981 ± 0.046.

As to TTAAAGTGTT, the switch fluorescence ratio was found to be 1.09 ± 0.16.

As to ATGAGATCAG, the switch fluorescence ratio came to 1.003 ± 0.005.

Regarding ACAAAGGGGG, the switch fluorescence ratio is 0.92 ± 0.087.

As for AGCACTTTAT, the switch fluorescence ratio amounted to 1.05 ± 0.073.

GATGAAGCCT: the switch fluorescence ratio turned out to be 1.17 ± 0.035.

TTGTGAGGGG: the switch fluorescence ratio was determined as 0.988 ± 0.022.

With TTTTAACGGA, the switch fluorescence ratio was determined as 1.03 ± 0.041.

On to AATCAGGAAG, for which the switch fluorescence ratio came out at 1.02 ± 0.035.

As to GCATGGGGTG, the switch fluorescence ratio was found to be 1.069 ± 0.0081.

ATGGGGTACG: the switch fluorescence ratio was 0.972 ± 0.06.

On to CAGGTGCTGG, for which the switch fluorescence ratio is 1.167 ± 0.0018.

With TCGGTTCGTG, the switch fluorescence ratio was found to be 1.01 ± 0.054.

CGTCCCTAGC: the switch fluorescence ratio was 1.61 ± 0.06.

Turning to CGGCTTACAC, the switch fluorescence ratio is 1.12 ± 0.017.

With AAGGAAATGG, the switch fluorescence ratio amounted to 1.01 ± 0.035.

CTGGGAGGGT: the switch fluorescence ratio came out at 0.9977 ± 0.0012.

Take CAGGCGGGTG: the switch fluorescence ratio stood at 1.06 ± 0.11.

As for CTAGGGGACA, the switch fluorescence ratio came out at 1.04 ± 0.029.

With GTAGCAGACG, the switch fluorescence ratio was determined as 1.16 ± 0.013.

For the sequence AGGTTGGCAA, the switch fluorescence ratio turned out to be 1.07 ± 0.14.

On to TTAAAGCGTG, for which the switch fluorescence ratio was determined as 0.969 ± 0.011.

In the case of GGTAGGAAAA, the switch fluorescence ratio is 0.972 ± 0.076.

As for ACCAGTGTCA, the switch fluorescence ratio was 1.02 ± 0.021.

Regarding GGGGAGTATT, the switch fluorescence ratio is 0.971 ± 0.015.

For the sequence GATGTTAGGA, the switch fluorescence ratio came to 0.978 ± 0.034.

ACCGTGTCAA: the switch fluorescence ratio came out at 1.01 ± 0.032.

TAGTGGAGTG: the switch fluorescence ratio came to 1 ± 0.011.

Turning to GTAACCGGTA, the switch fluorescence ratio stood at 1.02 ± 0.024.

TATATCGGGG: the switch fluorescence ratio was determined as 0.992 ± 0.03.

Take GCAAATGCGT: the switch fluorescence ratio is 1.03 ± 0.059.

Regarding AGCGGAAGAA, the switch fluorescence ratio is 1.02 ± 0.024.

AGTTGGGGCT: the switch fluorescence ratio stood at 1.01 ± 0.023.

Consider TTTTCGTTTG, for which the switch fluorescence ratio is 1 ± 0.074.

TGGGGGAAAC: the switch fluorescence ratio worked out at 1.01 ± 0.032.

With GTGGGGCCGA, the switch fluorescence ratio stood at 1.01 ± 0.031.

For TGCGGCGCTT, the switch fluorescence ratio was determined as 1.97 ± 1.3.

Consider CTGGACCTTG, for which the switch fluorescence ratio was found to be 0.977 ± 0.026.

With GAATTTTTTA, the switch fluorescence ratio was 0.999 ± 0.018.

With TCGATTTGAT, the switch fluorescence ratio amounted to 0.98541 ± 0.00062.

As for TTTGTGGTGG, the switch fluorescence ratio stood at 1.01 ± 0.012.

With CGGATCGGAT, the switch fluorescence ratio worked out at 0.976 ± 0.04.

As for CTTTTTGTGT, the switch fluorescence ratio is 0.987 ± 0.019.

As for GGGGGGGGCC, the switch fluorescence ratio turned out to be 0.998 ± 0.053.

In the case of CGAGTAAAGA, the switch fluorescence ratio amounted to 1.03 ± 0.028.

As to TTGTAACGGA, the switch fluorescence ratio is 1.01 ± 0.039.

AACTTGGACC: the switch fluorescence ratio was determined as 1.05 ± 0.035.

Regarding AAACAGGGTG, the switch fluorescence ratio is 1.05 ± 0.05.
